Experimental data reported in patent US20030103973A1 (published 2003).
Like-named read-outs stand apart in the source and are kept apart here.

B1: chimeric p1C11 IgG (c-p1C11) (antibody, V domains shown)
VH: QVKLQQSGAELVGSGASVKLSCTTSGFNIKDFYMHWVKQRPEQGLEWIGWIDPENGDSDYAPKFQGKATMTADSSSNTAYLQLSSLTSEDTAVYYCNAYYGDYEGYWGQGTTVTVSS
VL: DIELTQSPAIMSASPGEKVTITCSASSSVSYMHWFQQKPGTSPKLWIYSTSNLASGVPARFSGSGSGTSYSLTISRMEAEDAATYYCQQRSSYPFTFGSGTKLEIK
notes: bivalent IgG made in COS cells; also called chimeric IgG
B2: rat anti-mouse FLK-1 monoclonal antibody DC-101 (antibody, from another filing, rat IgG1, V domains shown)
VH: EVQLVETGGGLVQPGNSLKLSCATSGFIFSTTWMNWIRQTPGKRLEWLAQIEDKSNNYFISYSESVKGRFTISRDDSKSSVYLQMNNLKEEDTAIYYCSWKYRSNYYFDYWGQGVMVTVSS
VL: DIVLTQSPALAVSLEQRATISCKTSQNVDYYGISYLHWYQQKPGQQPKLLIYEGSNLASGIPARFSGSGSGTDFTLTIDPVEADDIVTYYCQQSKDYPYTFGAGTKLELKR
B3: anti-KDR single chain antibody p1C11 (scFv)
scFv: QVKLQQSGAELVGSGASVKLSCTTSGFNIKDFYMHWVKQRPEQGLEWIGWIDPENGDSDYAPKFQGKATMTADSSSNTAYLQLSSLTSEDTAVYYCNAYYGDYEGYWGQGTTVTVSSGGGGSGGGGSGGGGSDIELTQSPAIMSASPGEKVTITCSASSSVSYMHWFQQKPGTSPKLWIYSTSNLASGVPARFSGSGSGTSYSLTISRMEAEDAATYYCQQRSSYPFTFGSGTKLEIK
notes: also called scFv p1C11; p1C11 scFv

Key:
[1] = biological target: T1, soluble fusion protein KDR-AP (KDR extracellular domain fused to human placental alkaline phosphatase) (human, UniProt P35968 20-764); assay: BIAcore, KDR-AP immobilized
T1 construct: extracellular domain; also called immobilized KDR; KDR receptor; not shown: human placental alkaline phosphatase (vector AP-Tag)
T1 sequence (P35968 20-764): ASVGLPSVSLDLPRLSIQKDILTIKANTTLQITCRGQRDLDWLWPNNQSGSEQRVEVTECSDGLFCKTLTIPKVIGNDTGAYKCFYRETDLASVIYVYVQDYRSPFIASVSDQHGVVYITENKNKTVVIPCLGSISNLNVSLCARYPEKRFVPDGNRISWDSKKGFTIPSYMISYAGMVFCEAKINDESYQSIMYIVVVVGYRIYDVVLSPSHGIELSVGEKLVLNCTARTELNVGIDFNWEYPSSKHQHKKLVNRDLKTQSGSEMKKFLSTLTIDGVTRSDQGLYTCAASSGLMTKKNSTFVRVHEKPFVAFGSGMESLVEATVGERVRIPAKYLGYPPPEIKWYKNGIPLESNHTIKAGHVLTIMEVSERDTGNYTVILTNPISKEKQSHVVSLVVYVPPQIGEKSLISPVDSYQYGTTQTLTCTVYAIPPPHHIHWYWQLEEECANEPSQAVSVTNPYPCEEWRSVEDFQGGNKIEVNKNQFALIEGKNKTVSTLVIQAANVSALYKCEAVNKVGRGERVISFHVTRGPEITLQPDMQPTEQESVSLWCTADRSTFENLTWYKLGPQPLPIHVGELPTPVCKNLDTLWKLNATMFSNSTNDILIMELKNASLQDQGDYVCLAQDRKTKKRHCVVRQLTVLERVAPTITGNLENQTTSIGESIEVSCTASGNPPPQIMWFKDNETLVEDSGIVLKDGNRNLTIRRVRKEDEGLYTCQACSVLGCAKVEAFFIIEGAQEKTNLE
Experimental: The binding kinetics of antibodies to KDR were measured using BIAcore biosensor (Pharmacia Biosensor). […] Sensorgrams were obtained at each concentration and were evaluated using a program, BIA Evaluation 2.0, to determine the rate constants kon and koff. Kd was calculated as the ratio of rate constants koff/kon.
*All rates are determined by surface plasmon resonance using BIAcore system, and are mean of at least three separate determinations.

[2] = biological target: T1, soluble fusion protein KDR-AP (KDR …); assay: competitive ELISA: KDR-AP binding to immobilized VEGF165
[3] = biological target: chimeric receptor mouse FLK-1/human fms expressed on transfected 3T3 cells (C441) (mouse; human) (UniProt P35918); assay: saturation binding to intact C441 cells, colorimetric detection
Chain of chimeric receptor mouse FLK-1/human fms expressed on transfected 3T3 cells (C441) (mouse; human) (P35918 other isoform, or with tags, fused parts or gaps mutant limits assumed): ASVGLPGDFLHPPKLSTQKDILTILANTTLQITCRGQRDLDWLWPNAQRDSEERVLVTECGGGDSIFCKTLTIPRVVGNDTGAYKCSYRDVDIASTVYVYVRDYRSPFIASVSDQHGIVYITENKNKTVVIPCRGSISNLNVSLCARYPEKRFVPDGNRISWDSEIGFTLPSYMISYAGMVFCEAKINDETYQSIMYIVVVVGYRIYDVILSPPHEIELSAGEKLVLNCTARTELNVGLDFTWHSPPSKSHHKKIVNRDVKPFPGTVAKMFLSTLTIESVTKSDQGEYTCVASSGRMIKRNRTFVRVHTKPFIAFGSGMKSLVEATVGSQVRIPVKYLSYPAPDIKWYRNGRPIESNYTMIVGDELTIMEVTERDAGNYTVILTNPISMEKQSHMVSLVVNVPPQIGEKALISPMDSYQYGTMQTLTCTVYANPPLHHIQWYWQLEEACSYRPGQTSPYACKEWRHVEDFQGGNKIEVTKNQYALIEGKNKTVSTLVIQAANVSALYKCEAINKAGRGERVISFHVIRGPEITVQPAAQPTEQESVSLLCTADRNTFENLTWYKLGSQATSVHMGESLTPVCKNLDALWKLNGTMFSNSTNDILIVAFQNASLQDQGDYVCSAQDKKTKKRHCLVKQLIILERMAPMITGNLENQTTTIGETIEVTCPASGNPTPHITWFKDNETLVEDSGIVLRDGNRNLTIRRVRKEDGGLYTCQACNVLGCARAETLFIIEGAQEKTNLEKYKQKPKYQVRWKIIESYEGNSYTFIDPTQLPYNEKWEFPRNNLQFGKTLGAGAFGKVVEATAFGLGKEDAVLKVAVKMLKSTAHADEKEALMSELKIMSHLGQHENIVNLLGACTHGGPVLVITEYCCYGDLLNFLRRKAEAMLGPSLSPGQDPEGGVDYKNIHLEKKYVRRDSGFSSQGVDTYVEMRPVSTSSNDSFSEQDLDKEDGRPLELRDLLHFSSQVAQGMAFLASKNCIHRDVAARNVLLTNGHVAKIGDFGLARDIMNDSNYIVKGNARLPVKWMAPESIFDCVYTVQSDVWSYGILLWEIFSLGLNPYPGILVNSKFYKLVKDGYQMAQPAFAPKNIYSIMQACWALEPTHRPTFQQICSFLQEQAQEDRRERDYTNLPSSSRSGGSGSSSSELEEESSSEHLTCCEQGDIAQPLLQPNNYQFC

[4] = biological target: chimeric receptor mouse FLK-1/human fms expressed on transfected 3T3 cells (C441) (mouse; human) (UniProt P35918); assay: cell-based or functional assay
[5] = biological target: T1, soluble fusion protein KDR-AP (KDR …); assay: competitive VEGF blocking ELISA: KDR-AP binding to immobilized VEGF165
[6] = biological target: T1, soluble fusion protein KDR-AP (KDR …); assay: BIAcore, KDR-AP immobilized; remark: listed apart in the source
Experimental: The binding kinetics of soluble scFv to KDR were measured using BIAcore biosensor (Pharmacia Biosensor). KDR-AP fusion protein was immobilized onto a sensor chip and soluble scFv were injected at concentrations ranging from 62.5 nM to 1000 nM. Sensorgrams were obtained at each concentration and were evaluated using a program, BIA Evaluation 2.0, to determine the rate constant kon and koff. Kd was calculated from the ratio of rate constants koff/kon.

KDR expressed on HUVEC = KDR expressed on HUVEC (human, UniProt P35968 20-1356); assay: cell-based or functional assay
Chain of KDR expressed on HUVEC (P35968 20-1356): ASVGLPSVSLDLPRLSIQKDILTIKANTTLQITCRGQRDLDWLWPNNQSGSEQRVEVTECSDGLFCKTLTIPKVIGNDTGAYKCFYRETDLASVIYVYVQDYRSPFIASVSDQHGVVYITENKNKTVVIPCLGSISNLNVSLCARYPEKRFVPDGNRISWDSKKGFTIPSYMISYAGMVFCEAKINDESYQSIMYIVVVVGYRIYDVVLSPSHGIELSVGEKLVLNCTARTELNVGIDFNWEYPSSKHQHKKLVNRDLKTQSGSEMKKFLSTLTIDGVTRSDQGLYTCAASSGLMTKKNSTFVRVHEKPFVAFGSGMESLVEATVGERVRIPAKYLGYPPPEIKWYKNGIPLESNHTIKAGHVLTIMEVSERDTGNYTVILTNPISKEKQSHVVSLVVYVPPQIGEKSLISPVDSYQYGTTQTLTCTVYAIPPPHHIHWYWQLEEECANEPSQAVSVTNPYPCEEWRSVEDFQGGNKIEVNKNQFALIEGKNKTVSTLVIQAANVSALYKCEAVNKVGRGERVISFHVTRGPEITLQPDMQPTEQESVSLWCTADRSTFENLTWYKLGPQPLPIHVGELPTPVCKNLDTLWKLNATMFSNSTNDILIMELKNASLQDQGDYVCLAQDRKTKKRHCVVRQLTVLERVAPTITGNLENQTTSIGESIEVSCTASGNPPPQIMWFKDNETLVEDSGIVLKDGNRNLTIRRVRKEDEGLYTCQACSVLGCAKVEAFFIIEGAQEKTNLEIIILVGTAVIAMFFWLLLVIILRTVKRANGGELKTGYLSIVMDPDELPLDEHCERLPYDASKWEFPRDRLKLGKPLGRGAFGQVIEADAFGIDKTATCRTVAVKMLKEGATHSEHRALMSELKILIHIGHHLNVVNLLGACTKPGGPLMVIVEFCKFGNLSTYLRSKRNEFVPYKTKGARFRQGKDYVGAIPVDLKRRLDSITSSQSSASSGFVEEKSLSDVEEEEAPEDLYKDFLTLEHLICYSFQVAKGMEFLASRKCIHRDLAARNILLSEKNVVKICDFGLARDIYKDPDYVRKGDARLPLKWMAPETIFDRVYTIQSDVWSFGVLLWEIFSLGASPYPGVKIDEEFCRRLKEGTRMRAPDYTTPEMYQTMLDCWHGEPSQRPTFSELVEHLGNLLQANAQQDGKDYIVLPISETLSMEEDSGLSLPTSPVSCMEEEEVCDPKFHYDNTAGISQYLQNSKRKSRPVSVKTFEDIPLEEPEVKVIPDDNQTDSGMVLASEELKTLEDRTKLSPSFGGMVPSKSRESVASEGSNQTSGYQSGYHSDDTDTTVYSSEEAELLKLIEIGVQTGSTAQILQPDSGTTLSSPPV

[7] = biological target: T1, soluble fusion protein KDR-AP (KDR …); assay: direct binding ELISA on KDR-coated plates (printed ED50, 50% of maximum binding)
Experimental: In the direct binding assay, various amounts of soluble scFv were added to KDR-coated 96-well Maxi-sorp microtiter plates and incubated at room temerature for 1 h, after which the plates were washed 3 times with PBST. The plates were then incubated at room temerature for 1 h with 100 μl of mouse anti-E tag antibody followed by incubation with 100 µl of rabbit anti-mouse antibody-HRP conjugate. The plates were washed and developed following the procedure described above for the phage ELISA.

| Binder | Kd [1] [nM] | koff [1] [s⁻¹] | kon [1] [M⁻¹ s⁻¹] | IC50 [2] [nM] | relative apparent affinity [3] [ng/mL] | antibody concentration giving a marked decrease in the phosphorylation of FLK-1, competitive conditions [4] [µg/mL] | antibody concentration giving a marked decrease in the phosphorylation of FLK-1 by VEGF165 (40 ng/ml) [4] [µg/mL] | antibody concentration sufficient to inhibit receptor activation by ligand [4] [µg/mL] | level of FLK-1/fms phosphorylation relative to the fully stimulated receptor control, antibody added with VEGF (densitometry) [4] [%] | level of FLK-1/fms phosphorylation relative to the fully stimulated receptor control, antibody prebound (densitometry) [4] [%] | prebound antibody concentration sufficient to completely inhibit receptor activation by ligand [4] [µg/mL] | IC50 [5] [nM] | Kd [6] [nM] | koff [6] [s⁻¹] | kon [6] [M⁻¹ s⁻¹] | EC50, the antibody concentration that inhibited 50% of VEGF-stimulated mitogenesis of HUVEC (KDR expressed on HUVEC) [nM] | EC50 [7] [nM] |
| --- | --- | --- | --- | --- | --- | --- | --- | --- | --- | --- | --- | --- | --- | --- | --- | --- | --- |
| B1 | 0.82 | 5.2e-05 | 63000 | 0.8 |  |  |  |  |  |  |  |  |  |  |  |  |  |
| B2 |  |  |  |  | 500 | > 0.5 | > 0.5 | < 1 | 40 | 6 | < 1 |  |  |  |  |  |  |
| B3 | 2.1 | 0.000227 | 111000 | 2 |  |  |  |  |  |  |  | 3 | 2.1 | 0.00023 | 110000 | ~5 | 0.3 |
